Target: SARS-CoV prefusion stabilised spike ectodomain trimer (SARS-CoV Urbani, stabilised)
Assay: cryo-EM structure

B1: 47D11 Fab fragment (Fab, V domains shown)
VH: QVQLQESGPGLVKPSETLSLTCSVSGGSISSHYWSWIRQPPGKGLEWIGYIYYSGSTNHNPSLKSRVTISVDTSKNQFSLKLSSVTAADTAVYYCARGVLLWFGEPIFEIWGQGTMVTVSS
VL: EIVMTQSPATLSVSPGERATLSCRASQSVSSSLAWYQQKPGQAPRLLIYGASTRAPGIPARFSGSGSGTEFTLTISSLQSEDFAVYYCQQYNNWPLTFGGGTKVEI
stoichiometry N: 3 Fab per spike trimer
